Substitutions are numbered along the chain they refer to.
B1: P10-1 Fab (Fab, V domains shown)
VH: QVQLVQSGAEVKKPGASVKVSCKASGYTFTNYGLSWVRQAPGQGLEWMGENHPGSGIIYHNEKFRGRVTLTADRSTSTAYMELSSLRSEDTAVYYCARSSGTRGFAYWGQGTLVTVSS
VL: DVVMTQTPLSLSVTPGQPASISCRSSQSIVHSNGNTYLEWYLQKPGQSPQLLIYRVSNRFSGVPDRFSGSGSGTDFTLKISRVEAEDVGVYYCFQGSHGPWTFGQGTKLEIKR
notes: expressed in Expi293F cells, purified with KappaSelect; also called anti-human MUC1 antibody Fab fragment P10-1
B2: P10-2 Fab (Fab, V domains shown)
VH: B1 VH with A106D
VL: B1 VL
modifications: heavy chain N-terminal glutamine modified into pyroglutamic acid in a great majority of purified antibodies (Example 2)
notes: expressed in Expi293F cells, purified with KappaSelect; also called anti-human MUC1 antibody Fab fragment P10-2

Target: T1, human cancer-specific MUC1 (on breast cancer cell line T-47D cells) (human, UniProt P15941 24-1255, cancer-specific incomplete O-glycosylation (T, Tn, 2,3ST) of the tandem repeat, as described in the background)
T1 construct: whole, on cells; cells fixed in formalin; also called Mucin 1
Test: Cell ELISA on formalin-fixed T-47D cells, HRP anti-human Igκ detection, luminescence; reference 1B2 Fab
Description: Specifically, breast cancer cell line T-47D cells (purchasable from ATCC; HTB-133) expressing human cancer-specific MUC1 were inoculated at 0.75×10⁴ cells per well to a 96-well ELISA plate coated with collagen I, and cultured overnight. […] Then, a horseradish peroxidase (HRP)-labeled goat anti-human Igκ antibody (Southern Biotechnology Associates, Inc.) was reacted as a secondary antibody. ECL Prime Western Blotting Detection Reagent (GE Healthcare Japan Corp.) was added thereto for luminescence, and the degree of the luminescence was examined.

Binder	fold binding activity compared to 1B2 Fab [times]
B1	≥ 10
B2	≥ 10
